The values that follow come from article PMC5746249.

Assay [1] deals with LC8 dynein light chain (DYNLL2), full-length, His6-tagged (UniProt Q96FJ2). Briefly: SPR; ProteOn XPR36, HTG chip; His6-LC8 immobilised on Ni2+-NTA surface at three densities (1200, 900, 600 RU); peptides injected at five concentrations, 60 ul/min; 20 mM Hepes, 150 mM NaCl, 0.05% Tween-20, 0.1 mM TCEP, 50 uM EDTA, pH 7.5; 1:1 Langmuir model; Kd is the mean of the kinetic and the equilibrium analysis; apparent. For orientation: Surface plasmon resonance follows binding to a sensor surface in real time, without labels.

For assay [2] the target is unchanged. Briefly: SPR; ProteOn XPR36, HTG chip; His6-LC8 immobilised on Ni2+-NTA at three densities (1200, 900, 600 RU); peptides injected at five concentrations, 60 ul/min, 400 s, dissociation 600 s; 20 mM Hepes, 150 mM NaCl, 0.05% Tween-20, 0.1 mM TCEP, 50 uM EDTA, pH 7.5; 1:1 Langmuir global fit; Kd is the mean of the kinetic and the equilibrium analysis, SD from three individual Kd values.

LC8 dynein light chain (DYNLL2), full-length, His6-tagged, sequence (Q96FJ2 whole entry): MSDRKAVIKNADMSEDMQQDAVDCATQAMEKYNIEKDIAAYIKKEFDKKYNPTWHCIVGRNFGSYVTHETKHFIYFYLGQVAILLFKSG

“MPHOSPH9 LC8 binding motif peptide (motif start 909)”: the Kd in assay [1] was 1200 nM.

Turning to “MPHOSPH9 LC8 binding motif peptide (start 909)”, the Kd in assay [2] is 1200 nM.
